The values that follow come from PMC11479938.

This test deals with SerRS (full-length human seryl-tRNA synthetase) (human) (UniProt P49591).
Chain of SerRS (full-length human seryl-tRNA synthetase) (human) (P49591 whole entry): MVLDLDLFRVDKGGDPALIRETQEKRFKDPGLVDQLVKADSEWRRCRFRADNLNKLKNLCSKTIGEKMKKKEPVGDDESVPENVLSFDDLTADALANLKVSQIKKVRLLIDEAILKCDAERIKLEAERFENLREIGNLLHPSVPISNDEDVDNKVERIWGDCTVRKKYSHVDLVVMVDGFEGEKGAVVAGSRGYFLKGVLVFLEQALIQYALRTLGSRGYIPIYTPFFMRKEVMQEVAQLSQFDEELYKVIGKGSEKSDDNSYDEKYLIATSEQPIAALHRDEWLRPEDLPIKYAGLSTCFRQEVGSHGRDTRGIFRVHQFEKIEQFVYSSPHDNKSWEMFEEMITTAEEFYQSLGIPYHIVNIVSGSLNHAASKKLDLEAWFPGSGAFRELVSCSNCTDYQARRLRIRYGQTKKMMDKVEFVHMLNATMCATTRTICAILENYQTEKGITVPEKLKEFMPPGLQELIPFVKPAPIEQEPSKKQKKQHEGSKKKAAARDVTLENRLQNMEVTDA

In turn, “METTL6 (full-length human m^3C tRNA methyltransferase) (from UniProt Q8TCB7 1-284) (enzyme)” yielded an in vitro methyltransferase activity of METTL6 on tRNA^SerUGA after adding SerRS (^3H-SAM incorporation) of 1000 fold.
